{"source": "patent US20030176382", "target": "T1, synthetic peptide substrate ALERTFLSFPT", "T1 chain": "ALERTFLSFPT"}
{"protein": "aspartyl proteinase purified from the adult hookworm Necator americanus (protein) GVYKIPLKRITPPMIKMLRAGTWETYVEGMRKRQLQLLKEHKVHIQDVLGYANMEYLGEITIGTPQQKFLVVLDTGSSNLWVPDDSCYKEKRPDRCLVSNCDAGLVCQVFCPDPKCCEHTREFKQVNACKDKHRFDQKNSNTYVKTNKTWAIAYGTGDARGFFGRDTVRLGAEGKDQLVINDTWFGQAEHIAEFFSNTFLDGILGLAFQELSEGGVAPPIIRAIDLGLLDQPIFTVYFENVGDKEGVYGGVFTWGGLDPDHCEDEVTYEQLTEATYWQFRLKGVSSKNFSSTAGWEAISDTGTSLNGAPRGILRSIARQYNGQYVASQGLYVVDCSKNVTVDVTIGDRNYTMTAKNLVLEIQADICIMAFFEMDMFIGPAWILGDPFIREYCNIHDIEKKRIGFAAVKH", "values": [{"measurement": "substrate specificity assay (cleavage of a synthetic peptide substrate)", "result": "the proteinase cleaved the synthetic peptide substrate ALERTFLSFPT (SEQ ID NO. 7)"}]}
